# Reference: publication PMC7034192
# Key:
# M2R L129A = M2R L129A (UniProt P08172)
# M1R L131A = M1R L131A (UniProt P11229)
# Sequence of UniProt P08172 (P08172 whole entry L129A): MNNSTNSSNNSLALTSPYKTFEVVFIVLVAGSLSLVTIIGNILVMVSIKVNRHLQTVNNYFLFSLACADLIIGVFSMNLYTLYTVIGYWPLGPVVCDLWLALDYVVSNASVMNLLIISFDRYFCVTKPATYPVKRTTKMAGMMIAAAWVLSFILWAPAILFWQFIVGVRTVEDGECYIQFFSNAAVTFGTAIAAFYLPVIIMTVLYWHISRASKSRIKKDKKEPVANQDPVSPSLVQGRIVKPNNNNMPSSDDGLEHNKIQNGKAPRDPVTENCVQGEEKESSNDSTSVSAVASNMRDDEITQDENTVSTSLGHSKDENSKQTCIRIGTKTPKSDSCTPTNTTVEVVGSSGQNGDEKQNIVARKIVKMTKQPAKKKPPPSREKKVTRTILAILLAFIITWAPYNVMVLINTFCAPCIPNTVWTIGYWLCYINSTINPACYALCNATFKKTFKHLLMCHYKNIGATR
"coupling to GoA, percent of wild type (fig. S10) (% of wild type) (M2R L129A)","coupling with G11, percent of wild type (fig. S10) (% of wild type) (M1R L131A)",Substance
49,–,"G_(oAiN) heterotrimer (Gα_(oAiN), Gβ1, Gγ2) (from UniProt P09471 1-354; P62873 2-340; P59768 1-71) (complex)"
–,17,"G_(11iN) heterotrimer (Gα_(11iN), Gβ1, Gγ2) (from UniProt P63096 1-29; P29992 36-359; P62873 2-340; P59768 1-71) (complex)"
